{
  "source": "patent US9920133B2",
  "about": "“Anti-tissue factor monoclonal antibody” (NATIONAL CANCER CENTER, priority 2014, dated 2018)",
  "molecules": {"B1": {"name": "No. 1849: rat anti-human tissue factor monoclonal antibody, heavy/light chain variable regions SEQ ID NOS: 9 and 10 (antibody, V domains shown)", "VH": "EVQLVESGGGLVQSGRSLKLSCAASGFTFSDYNMAWIRQAPKKGLEWVAAIIYDGTRTYYRDSVRGRFTISRDNAKSTLYLQVDSLRSEDTATYYCATGDSYTNFAYWGQGTLVTVSS", "VL": "EIVLTQSPTTMAASPGEKVTLTCRASSSLSYMHWYQQRSGTSPKLWIYETSKLASGVPNRFSGSGSGTSFSLTIDSMETEDAATYYCQQGNSYPRTFGGGTKLELK", "modifications": "rat"}, "B2": {"name": "No. 1859: anti-human tissue factor monoclonal antibody, heavy/light chain variable regions SEQ ID NOS: 17 and 18 (antibody, V domains shown)", "VH": "EVMLVESGPGLVQPSQTLSLICTVSGFSLTDYSVHWVRQPPGKGLEWVGVMWSGGTTTFNSGLKSRLSISRDTSKSQVFLKMYSLRTEDTAVYYCTRERAGSPLNWFAYWGQGTLVTVSS", "VL": "DIVMTQSPASLSASLEEIVTITCQASQDIGNYLSWYQQKPGKSPHLLIHSSTSLADGVPSRFSGSRSGTQYSLKINRLQVEDTGVYYCLQHYSGSRTFGGGTNLELK", "modifications": "rat"}, "B3": {"name": "hTF-MMAE: anti-hTF monoclonal antibody (No. 1849) having monomethyl auristatin E (MMAE) bound thereto, three to five MMAE molecules per antibody (conjugate)", "VH": "B1 VH", "VL": "B1 VL", "modifications": "non-natural residues"}, "B4": {"name": "No. 1157: anti-mouse tissue factor monoclonal antibody, heavy/light chain variable regions SEQ ID NOS: 25 and 26 (antibody, V domains shown)", "VH": "MAEVMLVESGGGLVQPGRSLKLSCLASGFTFTDYGMNWIRQTPGKGLEWVASITVRNYIYYADTVKGRFTISRENAKNTLYLQMTSLTSEDTALYYCSRRTEGMDYWGQGVMVTVSS", "VL": "MTQSPSFLSASVGDRVTVTCKVSQNINGYLNWYQQKVGEAPKVLIYNTDNLQTDVPSRFSGSGSGTVFTLTISSLHPEDVATHFCLQHYSWPLTFGSGTQLEIKR", "modifications": "rat"}},
  "key": {"[1]": {"system": "Pancreatic cancer cells BxPC3 that express TF in high amounts", "assay": "Internalization assay (anti-hTF antibodies)", "format": "cell-based, human", "details": "30 μg Alexa 647-labeled antibody, culturing for 3 hours, fluorescence microscope", "experimental": "(§1) Each monoclonal antibody obtained as described above was subjected to the following internalization assay.\nPancreatic cancer cells BxPC3 that express TF in high amounts were seeded into a four-chamber Culture Slide (BD) at 5×10^4 cells/chamber, and cultured in RPMI 1640 medium at 37° C. under a 5% CO2 environment for 12 hours. The resultant was washed three times with PBS, and then 30 μg of antibody labeled with an Alexa 647 fluorescence labeling kit (Invitrogen) was diluted with 1 ml of RPMI 1640 medium and added to each chamber, followed by culturing for 3 hours. After 2 hours from the initiation of this culturing, Lysotracker® RED-DND99 (Invitrogen) was added to the culture solution to have a final concentration of 75 nM, followed by further culturing for 1 hour. Then, the resultant was washed three times with PBS. After that, immobilization was performed with 4% paraformaldehyde, and nuclear staining was performed with 4′,6-diamidino-2-phenylindole (DAPI), followed by mounting with Fluoromount-G® (Southern Biotech). Then, the cells were observed using a fluorescence microscope (Keyence)."}, "[2]": {"biological_target": "T1, recombinant hTF antigen (Homo sapiens, UniProt P13726)", "T1 construct": "made in house; host or cells: Escherichia coli", "T1 sequence (P13726 with tags, fused parts or gaps)": "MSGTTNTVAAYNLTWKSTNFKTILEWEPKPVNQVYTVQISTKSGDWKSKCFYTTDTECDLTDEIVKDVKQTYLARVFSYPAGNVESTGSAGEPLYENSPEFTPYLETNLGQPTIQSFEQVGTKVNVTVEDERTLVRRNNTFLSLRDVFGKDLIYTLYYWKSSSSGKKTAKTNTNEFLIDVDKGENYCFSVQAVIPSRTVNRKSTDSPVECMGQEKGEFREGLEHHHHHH", "assay": "Anticoagulant activity evaluation (prothrombin time)", "format": "biochemical", "details": "based on prolonged coagulation time ratio", "experimental": "The prothrombin time of each of the anti-hTF monoclonal antibodies (No. 1849 and No. 1859) was measured as described below.\n3 μg of the antibody was added to 350 ng of a recombinant hTF antigen, and PBS was added to a total volume of 5 μl. An antigen-antibody reaction was performed for 15 minutes under shaking at 37° C. and 600 rpm. To the reaction solution, 50 μl of human […] subjected to anticoagulant treatment with 3.8% sodium citrate, and 100 μl of 25 mM CaCl2 were added, and at the same time, culturing was performed under shaking at 37° C. and 600 rpm. The period of time until a fibrin clot was formed (prothrombin time) was measured. The prolonged coagulation time ratio (prothrombin time ratio) of each antibody when the prothrombin time in a control using PBS in place of the reaction solution is defined as 1 are shown in Table 3 and FIG. 2."}, "[3]": {"system": "Human pancreatic cancer cells (BxPC3)", "assay": "Cytocidal effect confirmation test", "format": "cell-based", "details": "BxPC3, 72 hours after addition, compared to mTF-MMAE", "experimental": "Human pancreatic cancer cells (BxPC3) were added to a 96-well plate at 3×10^3 cells/well, and cultured in RPMI medium containing 10% FCS, penicillin (100 U/ml), and streptomycin (100 μg/ml) hTF-MMAE was added to the wells at various drug concentrations, and cell survival rates 72 hours after the addition were calculated.\nIt should be noted that, as a comparative test, a similar test was performed using, in place of hTF-MMAE, mTF-MMAE obtained by binding MMAE, in the same manner as above, to a monoclonal antibody (mTF) against mouse TF not expressed in human cancer cells, and a cell survival rate was calculated. The ratio (%) of each cell survival rate, with the cell survival rate of a negative control (no addition of a drug sample) being defined as 100%, is shown in FIG. 3."}, "[4]": {"system": "human pancreatic cancer cells (BxPC3) implanted subcutaneously", "assay": "Antitumor effect confirmation test (tumor volume)", "format": "in vivo, nude mice (BALBc nu/nu)", "details": "BxPC3 xenograft nude mice, 10 mg/kg tail vein on Day 0, 4, 8, until Day 30", "experimental": "(§2) 1×10^7 cells/100 μL of human pancreatic cancer cells (BxPC3) were implanted subcutaneously into the backs of 4-week-old nude mice (BALBc nu/nu, female), and treatment was initiated when the tumor volume (calculated based on the tumor diameter) reached about 200 mm^3. The day of initiation of the treatment was defined as Day 0, and a drug was administered to the tail vein once on each of Day 0, Day 4, and Day 8 (administration three times in total). hTF-MMAE was used as the drug, and physiological saline was administered as a control (each group: N=7). The dose of the drug was 10 mg/kg per administration (antibody amount: about 200 μg/mouse). Thereafter, the tumor diameter and the body weight were measured twice a week until Day 30. The ratios of the tumor volume and the body weight to the tumor volume and the body weight at Day 0 are shown in FIG. 4 and FIG. 5, respectively."}, "[5]": {"assay": "Body weight in the antitumor effect confirmation test", "format": "in vivo, nude mice (BALBc nu/nu)", "details": "BxPC3 xenograft nude mice, 10 mg/kg tail vein on Day 0, 4, 8, until Day 30", "experimental": "as §2"}, "[6]": {"system": "Mouse B16 melanoma cells and cells thereof that were forced to express TF", "assay": "Internalization assay (anti-mTF antibody)", "format": "cell-based", "details": "mouse B16 melanoma cells and TF-forced-expression cells, 30 μg Alexa 647-labeled antibody, 3 hours", "experimental": "as §1\nMouse B16 melanoma cells and cells thereof that were forced to express TF were seeded into a four-chamber Culture Slide (BD) at 5×10^4 cells/chamber, and cultured in RPMI 1640 medium at 37° C. under a 5% CO2 environment for 12 hours. The resultant was washed three times with PBS, and then 30 μg of antibody labeled with an Alexa 647 fluorescence labeling kit (Invitrogen) was diluted with 1 ml of RPMI 1640 medium and added to each chamber, followed by culturing for 3 hours. After 2 hours from the initiation of this culturing, Lysotracker® RED-DND99 (Invitrogen) was added to the culture solution to have a final concentration of 75 nM, followed by further culturing for 1 hour. Then, the resultant was washed three times with PBS. After that, immobilization was performed with 4% paraformaldehyde, and nuclear staining was performed with 4′,6-diamidino-2-phenylindole (DAPI), followed by mounting with Fluoromount-G® (Southern Biotech). Then, the cells were observed using a fluorescence microscope (Keyence)."}},
  "data": [
    {"molecule": "B1", "values": [
      {"measurement": "ability to be internalized (labeling substance transferred into cells)", "setting": "[1]", "value": "had the ability to be internalized"}
    ]},
    {"molecule": "B2", "values": [
      {"measurement": "ability to be internalized (labeling substance transferred into cells)", "setting": "[1]", "value": "had the ability to be internalized"},
      {"measurement": "anticoagulant activity", "setting": "[2]", "value": "extremely small"}
    ]},
    {"molecule": "B3", "values": [
      {"measurement": "cytocidal effect (cell survival rate)", "setting": "[3]", "value": "remarkably excellent cytocidal effect"},
      {"measurement": "antitumor effect (tumor volume ratio to Day 0)", "setting": "[4]", "value": "remarkably excellent antitumor effect"},
      {"measurement": "body weight (ratio to Day 0)", "setting": "[5]", "value": "a reduction in body weight was not found"}
    ]},
    {"molecule": "B4", "values": [
      {"measurement": "ability to be internalized (fluorescence-labeled antibody transferred into cells)", "setting": "[6]", "value": "had the ability to be internalized by a cell expressing mTF"}
    ]}
  ]
}
